The target of experiment [1] is Cys-HA_(Anchorless) peptide, unlabelled (influenza virus). Description: SPR. For orientation: Surface plasmon resonance follows binding to a sensor surface in real time, without labels.
Experiment [2] concerns the target fluorescein-labelled HA_(Anchorless) peptide (influenza virus). Briefly: dissociation kinetics of fluorescent peptide-MHC complexes.
Experiment [3] has as its target influenza virus hemagglutinin peptide HA_(305–318), unlabelled (influenza virus). Briefly: SPR.

As for “soluble mutant HLA-DR1 with β86 glycine changed to tyrosine (from UniProt P01903) (complex)”, in experiment [1], the dissociation rate in the presence of DM was 8.5e-05 s⁻¹, the rate of binding to the peptide surface in the absence of DM was 0.119 s⁻¹, the t1/2 in the presence of DM was determined as 2.25 h and the t1/2 of dissociation was 3.4 h. In experiment [2], this substance yielded a t1/2 of dissociation of 1.8 h.

As to “soluble wild-type HLA-DR1 (empty, no added peptide) (from UniProt P01903) (complex)”, in experiment [1], the dissociation rate in the presence of DM was found to be 0.0038 s⁻¹, the rate of binding to the peptide surface in the absence of DM turned out to be 0.035 s⁻¹ and the t1/2 in the presence of DM was 0.05 h. Also, in experiment [3], the dissociation rate in the presence of DM was 5.6e-07 s⁻¹ and the t1/2 in the presence of DM amounted to 344 h. In addition, the t1/2 of dissociation in experiment [2] is 1.8 h.

For the origin of these results see article PMC2213500 (The Journal of Experimental Medicine, 2000).
